Results from article PMC7718890.

Target: CarD WT;MTB RNAP (WT) (Mycobacterium …, UniProt P9WJG3;P9WGZ1;P9WGY9;P9WGY7;P9WGY5 1-162;1-347;1-1178;1-1316;1-110, |)
Assay: competition (fluorescence polarization)
Details: protein: recombinant;recombinant; tags: ;; copies: 1;2;1;1;1; blunt

B1: rrnAP3 native 61 bp (dsDNA)
DNA 1: GATGACCGAACCTGGTCTTGACTCCATTGCCGGATTTGTATTAGACTGGCAGGGTTGCCCC
DNA 2: GGGGCAACCCTGCCAGTCTAATACAAATCCGGCAATGGAGTCAAGACCAGGTTCGGTCATC
B1 showed a Ki of 8 ± 1 nM.
